Experimental data: article PMC11895441

Target: human complement Factor H (human) (UniProt P08603)
Assay: SPR; Biacore X100 Plus; human FH captured by immobilised anti-FH mAb (Q254) on CM5; refolded NspA as analyte, five 3.16-fold dilutions from 10 µM, single-cycle kinetics; 10 mM HEPES, 150 mM NaCl, 3 mM EDTA, 0.005% P-20, pH 7.4; 1:1 model; apparent KD

UniProt P08603, sequence (P08603 19-1231): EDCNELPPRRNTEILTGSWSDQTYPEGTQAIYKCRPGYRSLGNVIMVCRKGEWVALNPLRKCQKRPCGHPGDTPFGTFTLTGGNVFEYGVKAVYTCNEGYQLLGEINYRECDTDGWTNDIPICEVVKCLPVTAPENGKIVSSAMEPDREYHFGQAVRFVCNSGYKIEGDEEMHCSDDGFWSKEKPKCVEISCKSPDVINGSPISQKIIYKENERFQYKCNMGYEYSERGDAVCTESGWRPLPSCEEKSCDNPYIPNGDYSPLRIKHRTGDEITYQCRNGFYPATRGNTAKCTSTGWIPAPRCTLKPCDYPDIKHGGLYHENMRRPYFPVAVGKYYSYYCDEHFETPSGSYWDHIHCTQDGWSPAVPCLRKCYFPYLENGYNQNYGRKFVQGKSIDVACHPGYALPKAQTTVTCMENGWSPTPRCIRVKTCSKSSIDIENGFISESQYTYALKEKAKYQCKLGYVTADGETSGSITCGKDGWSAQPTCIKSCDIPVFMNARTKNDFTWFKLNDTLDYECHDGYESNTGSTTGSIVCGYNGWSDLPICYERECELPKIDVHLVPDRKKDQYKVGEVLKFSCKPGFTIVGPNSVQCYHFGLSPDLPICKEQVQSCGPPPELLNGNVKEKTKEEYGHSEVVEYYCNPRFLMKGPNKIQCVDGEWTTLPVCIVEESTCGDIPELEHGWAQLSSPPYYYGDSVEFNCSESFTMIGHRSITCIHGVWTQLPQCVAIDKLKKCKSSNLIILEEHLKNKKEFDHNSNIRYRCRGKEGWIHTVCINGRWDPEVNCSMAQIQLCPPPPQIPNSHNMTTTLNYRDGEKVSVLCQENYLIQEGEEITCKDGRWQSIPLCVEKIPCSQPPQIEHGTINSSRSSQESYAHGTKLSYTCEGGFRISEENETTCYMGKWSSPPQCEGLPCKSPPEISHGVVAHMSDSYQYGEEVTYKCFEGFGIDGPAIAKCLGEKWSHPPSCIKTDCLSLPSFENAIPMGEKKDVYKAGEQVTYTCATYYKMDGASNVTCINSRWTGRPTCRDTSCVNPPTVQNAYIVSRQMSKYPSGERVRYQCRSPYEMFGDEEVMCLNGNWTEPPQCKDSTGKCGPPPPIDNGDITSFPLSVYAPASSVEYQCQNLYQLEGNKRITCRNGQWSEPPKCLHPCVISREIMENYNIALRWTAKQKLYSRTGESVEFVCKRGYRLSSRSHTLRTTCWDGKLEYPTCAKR

With “purified, refolded NspA from N. meningitidis strain 8047, wild type, without signal sequence (natural protein)” the Kd was 24.8 nM, the koff was 0.000608 s⁻¹ and the kon was 25100 M⁻¹ s⁻¹.
